Test results reported in US20210113605A1.
“And” between values parts separate entries of the source, which are not always exact repeats. Equal values may be shown once.

Biological target: T1, human TACI (transmembrane activator and CAML interactor, TNFRSF13B) on Tregs, iTregs and Bregs (human) (UniProt O14836)
T1 sequence: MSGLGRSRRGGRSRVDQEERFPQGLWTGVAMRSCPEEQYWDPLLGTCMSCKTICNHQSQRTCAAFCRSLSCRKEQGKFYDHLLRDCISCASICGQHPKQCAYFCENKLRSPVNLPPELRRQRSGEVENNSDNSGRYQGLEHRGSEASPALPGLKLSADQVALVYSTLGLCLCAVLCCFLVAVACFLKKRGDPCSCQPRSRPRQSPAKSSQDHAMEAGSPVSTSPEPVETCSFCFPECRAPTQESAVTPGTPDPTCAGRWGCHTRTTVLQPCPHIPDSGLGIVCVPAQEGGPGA
Experiment: cell-based or functional assay

fold increase of MM cell-induced iTreg in CD4 T cells, against control media: > 1.5 fold and 1.5 to 4 fold
percent Breg (CD19+CD24highCD38high) in B cells of MM patient BMMCs: 25.2%
percent IL-10 production in Bregs of MM patient BMMCs: 29.2%
percent proliferative iTreg (CTV-Foxp3+) in cocultures with U266 MM cells, representative experiment: 13.4%
percent proliferative iTreg (CTV-Foxp3+) in cocultures with U266 MM cells, three experiments: 11.3%
percent proliferative iTreg (CTV-Foxp3+CD4+) in cocultures with U266 MM cells, additional representative experiment: 8.02%
Substance: recombinant human APRIL (a proliferation-inducing ligand) (from UniProt O75888 105-250)
